T1: hTie2-mFc (human)
T1 chain: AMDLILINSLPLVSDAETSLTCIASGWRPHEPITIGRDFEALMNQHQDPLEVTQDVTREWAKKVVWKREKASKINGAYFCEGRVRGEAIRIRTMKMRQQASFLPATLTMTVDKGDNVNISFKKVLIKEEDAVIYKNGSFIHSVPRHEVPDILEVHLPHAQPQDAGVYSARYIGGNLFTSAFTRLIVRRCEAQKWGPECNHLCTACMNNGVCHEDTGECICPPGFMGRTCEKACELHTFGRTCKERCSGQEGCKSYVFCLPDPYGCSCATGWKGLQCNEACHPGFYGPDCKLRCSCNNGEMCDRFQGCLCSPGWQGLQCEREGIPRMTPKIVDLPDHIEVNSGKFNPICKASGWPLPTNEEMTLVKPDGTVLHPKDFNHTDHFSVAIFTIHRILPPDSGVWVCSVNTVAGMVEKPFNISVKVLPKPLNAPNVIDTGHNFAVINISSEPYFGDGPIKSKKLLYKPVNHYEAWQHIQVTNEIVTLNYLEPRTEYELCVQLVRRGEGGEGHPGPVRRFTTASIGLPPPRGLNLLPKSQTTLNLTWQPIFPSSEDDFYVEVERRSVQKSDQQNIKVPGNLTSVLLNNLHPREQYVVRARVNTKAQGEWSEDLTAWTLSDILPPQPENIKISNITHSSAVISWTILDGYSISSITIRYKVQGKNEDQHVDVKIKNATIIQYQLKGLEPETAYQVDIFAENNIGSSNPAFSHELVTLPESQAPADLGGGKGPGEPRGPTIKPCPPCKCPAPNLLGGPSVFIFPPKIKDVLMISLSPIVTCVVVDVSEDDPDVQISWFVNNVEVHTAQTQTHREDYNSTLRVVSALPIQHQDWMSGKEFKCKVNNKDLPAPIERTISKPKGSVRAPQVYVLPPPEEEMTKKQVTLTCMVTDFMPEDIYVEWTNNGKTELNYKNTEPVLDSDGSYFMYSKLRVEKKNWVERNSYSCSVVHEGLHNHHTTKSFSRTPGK


Columns and labels:
[1] = target: hTie2 on 293-Tie2/SRE-Luc cells (human, UniProt Q02763 23-1124); assay: cell-based or functional assay
[2] = target: T2, hTie2-His (human, UniProt Q02763 23-745); assay: SPR Biacore 37C, mAb captured
T2 construct: also called ecto-Tie2 fused to 6xHis; biotin-Tie2-His
Method: (§1) (Tables 3-6). Measurements were conducted on a Biacore 2000 or T200 instrument.
(§2) For antibodies with a mouse constant region (designated H1M or H2M), antibodies were immobilized onto an anti-mouse Fc sensor surface and different concentrations of human, mouse or rat Tie2 constructs (hTie2-His, mTie2-hFc and rTie2-hFc) were injected over the antibody captured surface. For antibodies in the human IgG format (designated H1H or H4H), either an anti-human Fc sensor surface (hTie2-His and hTie2-mFc) or anti-human Fab sensor surface (mTie2-hFc and rTie2-hFc) was employed depending on the Tie-2 construct applied to the antibody captured surface. Amino acid sequences of the constructs used in this Example are as follows: hTie2-His (SEQ ID NO:2); hTie2-hFc (SEQ ID NO:3); hTie2-mFc (SEQ ID NO:4); rTie2-hFc (SEQ ID NO:5); and mTie2-hFc (SEQ ID NO:6).
(§3) Kinetic rate constants—association rate (ka) and dissociation rate (kd) were determined by fitting the real time binding sensorgrams to a 1:1 binding model with mass transport limitation using Scrubber 2.0 curve fitting software. The equilibrium dissociation constant (KD) and dissociative half-life (T½) were calculated from the kinetic rate constants as: KD (M)=kd/ka; and T½ (min)=(In2/(60*kd).).

[3] = target: T1, hTie2-mFc; assay: SPR Biacore 37C, mAb captured
Method: as §1, §2, §3

[4] = target: T2, hTie2-His; assay: SPR Biacore 25C, mAb captured
Method: as §1, §2, §3

[5] = target: T1, hTie2-mFc; assay: SPR Biacore 25C, mAb captured
Method: as §1, §2, §3

[6] = target: T3, mTie2-hFc (mouse); assay: SPR Biacore 25C, mAb captured
T3 construct: also called mouse Tie2
Method: as §1, §2, §3

[7] = target: T4, rTie2-hFc (rat); assay: SPR Biacore 25C, mAb captured
T4 construct: also called rat Tie2
T4 sequence (chain, as listed by the source limits assumed): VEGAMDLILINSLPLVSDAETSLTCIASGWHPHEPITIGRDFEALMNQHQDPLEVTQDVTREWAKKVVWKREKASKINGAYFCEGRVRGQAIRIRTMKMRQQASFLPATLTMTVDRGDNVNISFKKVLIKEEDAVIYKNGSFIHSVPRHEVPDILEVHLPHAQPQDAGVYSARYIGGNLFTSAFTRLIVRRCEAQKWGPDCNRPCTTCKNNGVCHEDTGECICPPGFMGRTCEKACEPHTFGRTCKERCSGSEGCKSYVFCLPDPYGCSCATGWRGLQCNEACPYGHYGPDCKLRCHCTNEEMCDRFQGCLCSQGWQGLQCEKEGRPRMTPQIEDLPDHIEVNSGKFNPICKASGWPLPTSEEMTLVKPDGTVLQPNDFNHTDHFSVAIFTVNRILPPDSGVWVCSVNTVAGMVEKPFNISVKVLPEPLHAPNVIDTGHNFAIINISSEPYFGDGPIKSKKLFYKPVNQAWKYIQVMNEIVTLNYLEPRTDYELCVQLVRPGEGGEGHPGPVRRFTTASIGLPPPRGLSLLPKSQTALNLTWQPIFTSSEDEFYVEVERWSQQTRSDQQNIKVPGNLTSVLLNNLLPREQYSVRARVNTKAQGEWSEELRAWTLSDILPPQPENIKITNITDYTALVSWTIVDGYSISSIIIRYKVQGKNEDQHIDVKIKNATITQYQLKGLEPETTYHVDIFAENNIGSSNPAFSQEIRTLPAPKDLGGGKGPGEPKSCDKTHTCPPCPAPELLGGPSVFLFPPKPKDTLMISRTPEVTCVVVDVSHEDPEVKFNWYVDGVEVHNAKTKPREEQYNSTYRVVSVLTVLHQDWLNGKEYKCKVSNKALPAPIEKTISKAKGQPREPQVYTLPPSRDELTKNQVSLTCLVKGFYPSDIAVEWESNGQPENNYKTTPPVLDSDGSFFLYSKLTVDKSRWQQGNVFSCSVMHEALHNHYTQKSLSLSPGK
Method: as §1, §2, §3

EC50, Tie2 dependent luciferase activity, 293-Tie2/SRE-Luc cells with 1 nM BowAng1 [1]	EC50, Tie2 dependent luciferase activity, 293-Tie2/SRE-Luc cells with 1 nM BowAng2 [1]	Kd [2]	T½ [2]	koff [2]	kon [2]	Kd [3]	T½ [3]	koff [3]	kon [3]	Kd [4]	T½ [4]	koff [4]	kon [4]	Kd [5]	T½ [5]	koff [5]	kon [5]	Kd [6]	T½ [6]	Binder	other results
1.41 nM	2.1 nM	102 nM	1 min	0.00998 s⁻¹	97500 M⁻¹ s⁻¹	2.58 nM	22 min	0.000515 s⁻¹	200000 M⁻¹ s⁻¹	49.2 nM	3 min	0.00345 s⁻¹	70100 M⁻¹ s⁻¹	1.16 nM	60 min	0.000191 s⁻¹	165000 M⁻¹ s⁻¹	49.6 nM	2 min	H1H2340B (antibody, V domains shown, Tested as H1H2340B (human IgG format, H1H prefix); also called HIH2340B) VH: EVQLVESGGGLVQPGGSLRLSCAASGFTFSRYWMSWVRQAPGMGLEWVANIKQDGSEKNYVDSVKGRFTVSRDNAKNSLYLQMNSLRAEDTAVYYCASAIFGVVITSYWGQGTLVTVSS VL: not shown	koff [6]: 0.00672 s⁻¹; kon [6]: 136000 M⁻¹ s⁻¹; Kd [7]: 25.9 nM; T½ [7]: 3 min; koff [7]: 0.00371 s⁻¹; kon [7]: 143000 M⁻¹ s⁻¹
10.3 nM	13 nM	72 nM	2 min	0.00488 s⁻¹	67800 M⁻¹ s⁻¹	1.53 nM	39 min	0.000295 s⁻¹	193000 M⁻¹ s⁻¹	22.4 nM	9 min	0.00125 s⁻¹	55800 M⁻¹ s⁻¹	0.67 nM	114 min	0.000102 s⁻¹	151000 M⁻¹ s⁻¹	56.3 nM	4 min	H1H2339B (antibody, V domains shown, Tested as H1H2339B (human IgG format, H1H prefix)) VH: EVQLVESGGGLVQPGGSLRLSCAASGFTFSSYAMNWVRQAPGKGLEWVSSISGSGGNTYYADSVKGRFTISRDNSKNTLYLQLNSLRAEDTAVYYCAKDHSLSWYRNVFDIWGQGTMVTVSS VL: not shown	koff [6]: 0.00263 s⁻¹; kon [6]: 46800 M⁻¹ s⁻¹; binding result [7]: no binding

Reference: patent US20170174789A1 (Regeneron, published 2017)
